This data set is described as follows: protein stability index of a GFP-peptide fusion (GPS, HEK-293T) (PSI 1-6); higher = more stable. The conditions noted are these: c terminus: a fixed tail appended.

This passage reports protein stability index results from the supplement of paper PMC10567573.

± gives the standard deviation.
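Further: 24-mer peptide tiles fused after GFP, lentivirally expressed, FACS-sorted into six equal bins by GFP/DsRed ratio, decoded by Illumina sequencing, PSI is the read-weighted mean bin number.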

Consider FCASTRLPPTPLLLFPEEEATNGR [AUP1], for which the protein stability index reads like this: (treatment: DMSO) 3.03 ± 0.59; (treatment: MLN4924 1 uM, 8 h) 3.79 ± 0.31.
Consider FDHLQNRLIATKNPEEIRGGGLLK [TENT5C], for which the protein stability index reads like this: (treatment: DMSO) 3.73 ± 0.26; (treatment: MLN4924 1 uM, 8 h) 4.09 ± 0.36.
For the sequence FDKEWVAKQTKRMLDMKVNPIQGL [COX4I1], the protein stability index runs as follows: (treatment: DMSO) 2.46 ± 0.44; (treatment: MLN4924 1 uM, 8 h) 2.78 ± 0.41.
Sequence FDKLALRFHGRLLFLKDVLGDEIC [KCTD13] came in with a protein stability index (treatment: DMSO) of 2.48 ± 0.41 and a protein stability index (treatment: MLN4924 1 uM, 8 h) of 2.34 ± 0.18.
In the case of FDNPQVRFFLGDLCSRQDLYPALK [NSDHL], the protein stability index runs as follows: (treatment: DMSO) 2.35 ± 0.29; (treatment: MLN4924 1 uM, 8 h) 2.25 ± 0.26.
Regarding FDSDWYTSRNLIGGADIIVIKYNV [RHOBTB3], the protein stability index (treatment: DMSO) was 2.73 ± 0.52 and the protein stability index (treatment: MLN4924 1 uM, 8 h) is 3.12 ± 0.4.
In the case of FDVFSPKQDLVPGSPDDSHPKDGP [DLC1], the protein stability index came out at 5.43 ± 0.36 (treatment: DMSO) and 5.43 ± 0.33 (treatment: MLN4924 1 uM, 8 h).
In the case of FFAFEHSEEYQQAQHKFLVAVESM [TCF25], the protein stability index is 3.59 ± 0.35 (treatment: DMSO) and 3.56 ± 0.4 (treatment: MLN4924 1 uM, 8 h).
FFIRTSDSFDKFDFCEPSFVTGNC [PCMTD2]: the protein stability index turned out to be 2.52 ± 0.33 (treatment: DMSO) and 2.42 ± 0.26 (treatment: MLN4924 1 uM, 8 h).
Consider FGRYLEHLEVKFMNPYNAVLTKKF [FBXO39], for which the protein stability index reads like this: (treatment: DMSO) 2.24 ± 0.45; (treatment: MLN4924 1 uM, 8 h) 2.04 ± 0.16.
For FKAEVDPLSDKGTTPLQLAIIRER [ASB7], the protein stability index reads like this: (treatment: DMSO) 3.82 ± 0.34; (treatment: MLN4924 1 uM, 8 h) 3.85 ± 0.25.
In turn, FKNRLVNIMPYESTRVCLQPIRGV [PTPRD] yielded a protein stability index (treatment: DMSO) of 2.35 ± 0.35 and a protein stability index (treatment: MLN4924 1 uM, 8 h) of 2.33 ± 0.47.
Regarding FLFVLGGEDQWNPNGKHSTNFVSR [KLHL14], the protein stability index amounted to 2.11 ± 0.15 (treatment: DMSO) and 2.27 ± 0.41 (treatment: MLN4924 1 uM, 8 h).
As for FLLAFGLMIIVCIDQWKNKIWPEI [RETREG3], the protein stability index by setting is: (treatment: DMSO) 2.94 ± 0.4; (treatment: MLN4924 1 uM, 8 h) 3.09 ± 0.35.
For the sequence FLLCARSLLRGFLLQNEFVGFMWR [MCOLN1], the protein stability index by setting is: (treatment: DMSO) 2.55 ± 0.34; (treatment: MLN4924 1 uM, 8 h) 2.39 ± 0.79.
In the case of FLMLAVSLTVPLLGAMMLLESPID [APMAP], the protein stability index (treatment: DMSO) is 3.52 ± 0.26 and the protein stability index (treatment: MLN4924 1 uM, 8 h) worked out at 3.64 ± 0.37.
In the same order, the values of FLPTALLCAYGFFASLRPSEPFLT [SLC19A2] are 3.25 ± 0.56 and 3.26 ± 0.59.
In the same order, the values of FLSENATVAAETRAVIAWMEKIPF [CPXM2] are 2.04 ± 0.12 and 2.28 ± 0.5.
The sequence FLSLHRAHLGEEAHKCLECGKCFS [ZNF263] came in with a protein stability index (treatment: DMSO) of 3.06 ± 0.28 and a protein stability index (treatment: MLN4924 1 uM, 8 h) of 3.44 ± 0.37.
For FLVVREPPRGAVERHSDLPPLNPT [SPNS1], the protein stability index reads like this: (treatment: DMSO) 2.85 ± 0.39; (treatment: MLN4924 1 uM, 8 h) 3.09 ± 0.34.
FPKKLAFAYLEDLHSEFDEQHGKK [SEC22B]: the protein stability index reads like this: (treatment: DMSO) 2.89 ± 0.28; (treatment: MLN4924 1 uM, 8 h) 3.26 ± 0.38.
As to FQFASIDVAGNLDYKALSYVITHG [MYL5], the protein stability index amounted to 2.51 ± 0.47 (treatment: DMSO) and 2.29 ± 0.31 (treatment: MLN4924 1 uM, 8 h).
For FRFTYYTILDIFRFALRFIRPDPR [FAF2], the protein stability index worked out at 2.56 ± 0.067 (treatment: DMSO) and 2.47 ± 0.33 (treatment: MLN4924 1 uM, 8 h).
As for FSAEFLKVFIPSLFLSHVLALGLG [BNIP3L], the protein stability index (treatment: DMSO) was 3.57 ± 0.21 and the protein stability index (treatment: MLN4924 1 uM, 8 h) came out at 2.9 ± 0.93.
Consider FSIVSVAAHLALLLLCGTISLRVY [RTN2], for which the protein stability index worked out at 3.35 ± 0.76 (treatment: DMSO) and 3.16 ± 0.8 (treatment: MLN4924 1 uM, 8 h).
In the same order, the values of FVDILESDLKDDDAVPPGMESLIS [CDC25B] are 3.55 ± 0.64 and 3.94 ± 0.43.
On to FVELIGPKLREETAHMLGVRELRI [CABP4], for which the protein stability index (treatment: DMSO) is 2.69 ± 0.88 and the protein stability index (treatment: MLN4924 1 uM, 8 h) turned out to be 2.14 ± 0.88.
As for FVLGKGRGAAAAGGPQRIPAHRFV [BTBD1], the protein stability index is 2.3 ± 0.25 (treatment: DMSO) and 2.71 ± 0.31 (treatment: MLN4924 1 uM, 8 h).
Turning to FWLGNEALHSLTQAGDYSMRVDLR [TNXB], the protein stability index is 2.19 ± 0.71 (treatment: DMSO) and 2.44 ± 0.14 (treatment: MLN4924 1 uM, 8 h).
With GAGHFEVVKLLVSHGANVNHTTVT [FEM1B], the protein stability index is, setting by setting: (treatment: DMSO) 2.23 ± 0.51; (treatment: MLN4924 1 uM, 8 h) 2.26 ± 0.2.
Take GARDGIRYLEAEFKKGNRYIRCQK [SMG5]: the protein stability index was determined as 3.14 ± 0.3 (treatment: DMSO) and 3.57 ± 0.32 (treatment: MLN4924 1 uM, 8 h).
In the same order, the values of GAREEDLDAVEAQIGCKLPDDYRC [FBXO3] are 5.25 ± 0.073 and 5.15 ± 0.12.
For GAVIEVFGHRFIILDTDEYVLKYM [EFHC1], the protein stability index runs as follows: (treatment: DMSO) 2.5 ± 0.56; (treatment: MLN4924 1 uM, 8 h) 2.27 ± 0.67.
As to GCKGFFRRSVRKNHMYSCRFSRQC [HNF4A], the protein stability index came to 2.15 ± 0.18 (treatment: DMSO) and 2.27 ± 0.36 (treatment: MLN4924 1 uM, 8 h).
Regarding GDELYEQSDEEQDSVKVALLETNP [CLPTM1], the protein stability index by setting is: (treatment: DMSO) 5.37 ± 0.19; (treatment: MLN4924 1 uM, 8 h) 5.44 ± 0.17.
GDLFESTPEVAAAPKPDAAPSIDL [SNAP91]: the protein stability index by setting is: (treatment: DMSO) 5.3 ± 0.29; (treatment: MLN4924 1 uM, 8 h) 5.27 ± 0.16.
